The data set in a line: label from the status in PepcDB records.
Regarding “MALFSVFSVAQTTTYHTKNKKSISAYQEAELLQQQRRWNEAINVLDAVIQKDTGFVEAYYKVGSMYMAMGNKTAAARYFCKGADLDPSVKAFAGAYFTAGELSYNEGEYVRAKRYFGYALNVQSGDKKIKEQTPVYIAKCDFAIDMMKHPVDFKPVLMTPPINTAFAQSHPVLTADGKTLYYTTLSGLSRQDDENIVTSSYVNGKWSEPVSISDNINSKENEGTCSISMDGNSLVFVGCGKADGLGSCDIYISKKVNNVWSKPTNLGPAVNSTSWDSHPSLSADGRTLYFVSARKGGFGKEDIYVTHLDEKGIWSPAQNAGSSVNTSGTEFSPFIHADGTTLYFSSNGLLGMGGLDIFYTTGNDTTWAVPKNIGYPLNTYANDETLFITVDGAKGYYSRFDGTNVNYNSRIFLYEFDVPQSLKPGRISTFAKGHIYDKQTKKPLGARVELVDIETNTVTQAVQSDSITGEYTIVITEGKEYAVYVNRNKYLFESLNVNYKNPTSFDALTLDIYLTPIISGSHVTLNNIFFQTNSYQLEEKSISELKKLINFIQINPAQRVELAGYTDNVGTAEANLKLSAMRAKAVYDYLIQHGIKPAGITYKGYGAASPVADNNSEEGRQKNRRLEIKIL”, the protein production result is listed as “failed”.

Consider “MTEQERLELEAAAFRRLVAHLDSRKDVQNIDLMNLSGFCRNCLSKWYKAAADEKHIDITLDDAREVVYGMPYSEWKANYQKEASAEQQAAFVKESKHD”, for which the protein production result was “not failed”.

On to “MTKIIPVASGKGGVGKTSFVANVGYKLSSLGKTVILVDLDLGGSNLHTCLGVKNKGVGIGSFINKKSKSFSDLVCKTSYDKLYLIPGDALYTGTANLPFSIKKKIIESIQKDLIADFIFLDLGSGTSYNTIDFYLASYSGVIVTIPETPSILNAYSFLKNALYRLLYLGFPQKSPERDYIGNFFKDKIEGTNLGFKDLVVGIELISLSSSLKVKRMMNNFYPRVVLNRIETSEEIAMCENLINVVKNNINIPIEFIGFVPFAKSFREAINNRVPFIDFEKNSKLNKYFEFIAGNLIKSPIEGSPYIYDDIYDMIKDQSRFIRKLEHHHHHH”, for which the protein production result is “not failed”.

As for “MKAKSLMVVGTTSHAGKSLLAAVICRWLAQQGYRVTPFKGQNMALNAYVTREGGEIGYAQAMQAWAAGIEPEVAMNPILLKPQGNMTSQVILRGQVVGVTRAADYYRDYFERGWQAITEALADLQQRFDWIVCEGAGSPAEINLKHRDLTNMRVATYLGAPTILVADIDRGGVFAHIVGTLMLLEPAERALIQGIVINKFRGQRSLLDSGLQWLEETTGVPVLGVIPWLERHYAAEDSLDLWDPRPQRQGADLKITVIRLPRIANFTDIDPLLAEPSVAVEFLPPHRPLGRPDAVILPGTKTTIADLQVLRETGMAEQLKTYAAQGGTILGICGGWQMLGTAISDPLGLEGCPGTYEGLGLMPLHTQLGPTKCTQQQQTQSLYFNCPEPILGYEIHQGQSEYTGDRQGWHPLFAAPELGLVNRAGTLWGTYLHGLLENGPWRRHWLNGLRSRRQLPPLPTAIPHYGEQRTVALDELTKTVMAHLNLRGICKLC”, the protein production entry is given as “failed”.

For the sequence “MDGRPLNRTTRAVAMIAVTIPAHNEQALIGPCLQSIRVAAQHPALQGEAVEIHVALDRCTDQTGVIARAHGAITQEVCGGVGVARAAAASAAIARGAHWLACTDADTRVPPDWLMAQLACAADAFCGVVEVTDWRDHLSQTRAAFLASEIRHDGHPHVHGANLGMRTSAYLAAGGFSNASSSEDVALVAALEQAGMRIARLASPVVNTSARRSARASGGFADYLLRLEAALLAASPSLGLEHHHHHH”, the protein production entry is listed as “failed”.

On to “MRMFFSGLMESLKENKITFLWVLLFFLVGIVLGSYTVYYMSDFNRVEITTYFNNFLEFLGGNSVSYTSILVDSIKSILPMVAIIVLLGYTAVGTPIILMMDLAKGYVIGFTFSLIVSMLGSKGVMLVLSGLMLQNLIFIPIIMLISVLAIRHSVTKLKMGVSRDRVKLDVSRAYLNFQGLLSLIIISGILIETYISPNLIRLVISR”, for which the protein production entry is listed as “failed”.

With “MGSTRKGMLNVLIAAVLWGSSGVCAQYIMEQSQMSSQFLTMTRLIFAGLILLTLSFVHGDKIFSIINNHKDAISLLIFSVVGALTVQLTFLLTIEKSNAATATVLQFLSPTIIVAWFSLVRKSRPGILVFCAILTSLVGTFLLVTHGNPTSLSISPAALFWGIASAFAAAFYTTYPSTLIARYGTLPVVGWSMLIGGLILLPFYARQGTNFVVNGSLILAFFYLVVIGTSLTFSLYLKGAQLIGGPKASILSCAEPLSSALLSLLLLGITFTLPDWLGTLLILSSVILISMDSRRRARKINRPARHK”, the protein production entry is “failed”.

Regarding “MNSIKTPLLFLLIAFSSIFQSFSAGKPLGYEIKATIKGVKQADTVYLARYYADKRFYQDTAIADAKGFVSFSDTTHLKEGMYFLLLPGQKVFDFILNPSTLSFSIDTTNLIKSAHFKNSPDNTAFYDYQRFFMNQKTKADSINNLMKSAAATQKTVLTKQLSDIDSTMLAYIQNFLKTNPNSLFTAILKTTKDVDVPPAPKKADGSIDSSWQFHYYKKHYFDNVNFSDDRLIRTPVLVNKVDGYFKNLVVQRPDSIIKEIDMIISKCNPKGDLFEYYVREYTYKYETSQVMGMDAVFVHLGKEYYMKGKCFWATPETVKKIKERVDLLDPLLLGKKAPNLYMTDTTGTYRYLYDVQAKYTILFFWDSQCGHCQQETPKLYDWWLKNRAKGIQVYAANIERKDEEWLKFIRSKKIGGWLNVRDSKNHTDFKITYDIYATPVLYVLDKNKVIIAKRIGYENLDDFLVQYEKSLKTK”, the protein production result is listed as “failed”.

For the sequence “MYIPNAFRESDTHNLQEHMDKTRLAILVTQGDDGLHATHLPLLLRSDEGPYGTLYGHMAKANPQWQQLNADAEAMVIFPGEDAYVSPSFYPSKAEHGKVVPTWNYLAVHAYGQAECFTDPDRLHQLLNDLTDRHESSRAQPWSINDAPADYIAKMLGAIVGFSIPVQRLQGKRKLSQNRSAEDMAGVRDGLGASHLANDQQIARLMSGWRPS”, the protein production result is “not failed”.

Take “MFDATRAAFLGVAVFISVLLVASFFSPTPGRAVEPAPAGAPAQEGSLPHDGLGSIKPIHDVDLGGVEQPPLPAPVDPDPSFNPQPPFAPGELREGFVDVGNGNIRRYLIHVGTNYQPHAPELTPVVFGFGGWKDTPEKFADYSRFGLTDFGANAMIIYPEGIARAWEGAPYAATRVGDDVHFVRTILNAVDADYRIDRSRVYAVGMSNGGGMAASLACHAPDLVAGVVSVSAAYYEPVVADCAPGAVATLDIHGTHDEVIAYQGGMRHGAPFLGAEQVVAGVAARNGCGPALPPRWIEGPAEHYGFAGCAAPVEHVRVLGQKHVWNGVPHATTLAWEFLHHQHK”: the protein production entry is recorded as “failed”.

As to “MRTVLNILNFVLGGFATTLAWLLATLVSIVLIFTLPLTRSCWEITKLSLFPYGNEAIHVDELNPAAKSVLMNTGGTLLNIFWLLFFGWWLCLMHIASGIAQCVTIIGIPVGIANFKIAAIALWPVGRRVVSVETARAAREANARRRFE”, the protein production entry is “failed”.

Turning to “MNRSRDKVRCALNHQNAGSIPVDFGSTAVTGIHCRIVEALRNYYGLAPRPVKIVDAFQMLGEIDAELAEKIGVDCIGIGGPKDIFDLDTTRMHEQTTPWGQRVLVPEAMDLTPDMRGDVYVYAGGDQNYPPSAVMPKGCYFINAIERQQPIEEDRLDPEDNVEEFGLLTENDLAYYCAEADKAYQTGRAVVASFGGTALGDVAFVPGMGLKQPKGIRSVVEWYMSTAMRQDYLHQVFEKEIDIAIANYEKLWAALGDKIDVVLTCGTDFGSQESQFCSIDTFRELWLPHYRRMNDWIHQHTTWKIFKHSCGAIIPILPGLIEAGFDIINPVQINAKDMDSRRLKEEFGSQLTFWGGGVDTQKILPFGTPDEIRRHVMGQCEILGRDGGFVFNAVHNVQANVPVDNVVAMFDALKDISLEHHHHHH”, the protein production entry was “failed”.

Consider “MIVLALLGVLLLSVYAYKTKKLTLSGAISAFVVGALISFGLGFKGLLLLAIFFFTSGFWSRFYQERKENEITAKGSTRDGWQVLANGGFAAICALLFSILQDPIYICGFVASLAAANADTWASEVGPLAKRRPIHIIKWKPVDAGTSGAVSAIGTAAAFAGSFIIVVVSIFFWWSSSFASHHLLFSLTLAGFLGNLFDTLVGATGQVLYQCPRCGLETERKIHCNGPTEKKYGLRFLNNDTVNAICTGTGALFGIVAGLILL”, for which the protein production entry is “failed”.

Regarding “MRRNRVDVITLGCSKNLVDSEVLMRQFLSNGYTVHHDPASVCGEIVVVNTCGFIGDAQEESVNTILEMVEAKKAGRIGSLYVMGCLSERFREDLKKEIPEVDAYYGKFDWKQLISHLGKSYYAEAENRRKLTTPRHYAYLKISEGCDRSCSYCAIPIITGRHRSRPMEDLVEEVRMLVKHGTREFQLIAQDLTFYGLDLYGANRLAELTARLSDIKGVEWLRLHYAYPAQFPLDLLPVMRERPNVCKYLDMALQHISDPMLGRMRRRITKAETYELIERIRTEVPGIHLRTTLMTGHPGETERDFEELLQFVRDIRFERLGAFTYSHESGTYCDKNYQDDIPESVKQERLGELMAVQERISAAHNEAKIGSRLHVVIDRAEDGFYVGRTEYDSPEVDPEVLIPFVSGQELNPGRFYMAEVTGAEPFDLYARIVDLEHHHHHH”, the protein production entry is given as “failed”.

In the case of “MVSVSVVIATLKPRDEIEAIQCLEDQTFDDFEVIVCDKSPVTRARNEGIRQSSSDKIVFLDDDSRPQPGYLEKANDVLETEAAYAGRTIHPVDDVFARHFTAHYDWGGDPCYVDHFWGCNMGVHRDVFKTVGGWDEEMGWGHEEKELARRVRSEFDIRYDPELVVDHPYASSITDYWKKQYKLETKSPYYWSKCNVSRADQLKNIFCETFDPLNYVRITPVATMIEAGSTVAKTAGRLRGFLDHTHHEEGRGGVPDIDRPSQSPERSGLEHHHHHH”, the protein production result is on record as “failed”.

Regarding “MKKPVYMKGGLHWLRNDGAIVAFNPETEKARLISIRFPKELCSKTLFTAADNNLILISATEEVFYVYAVENILTDPKWVVLKQIRNGVLDEKMLYSWYPEAYDGKCLMLREILKKDHYKQVLHGYDLRANKWEVIGSIPGWYTSALDFYQFTPSLSSVIGPDAKEEEEILACDHKKISSINSIIRMLDGISS”, the protein production result is “failed”.

Take “ERRKTLETYQQLFYLLQTNPLYLAKLIFQMPQNKSTKFMDTVIFTLYNYASNQREEYLLLKLFKTALEEEIKSKVDQVQDIVTGNPTVIKMVVSFNRGARGQNTLRQLLAPVVKEIIDDKSLIINTNPVEVYKAWVNQL”: the protein production entry is listed as “failed”.

Regarding “MKSKIFSTSLAFAFLLLITTVASAGQEIQITPYGERGLNPAIYDNKIAWLDKYINGSLHLRDLSTGKEIQITEDPWYSYLAVYNDKIVWGPGGQNIYLYNISTNHKTLLSIPESENQGSRDSLTIYGDKIVWRDQSGGYQDIYMYDLSTYNKTRITTNQSTKDPVIYGDKIVWQEDPSFGFGSSYHDIYVYNLSTSNKTRVTTNRSASSPNVYGDRIVYMESNNIYFHNLSTSLETQITFNGSRKDKLAIYGDRIVWQDDRNGNWDVYVYDLSEDKEIQITNDESDQLNPAIYGDKIVWEDYRNDRENMYYCSIYMYDFSAKPTMPFASFSANITSKSGNMPLTVLFTCNSTGGTPTSWYWDFGDGINSKHAQTATHTFKKPGTYDVSLTVTNFAGNSTLKKSNYITVTPQQAPIADFFSPEVYHANTYGGSVPTKTVSFVDNSTGSPTSWLWDFGDGNTSTEQNPTHVYDVEGGYTVNLTVKNVVGSNTTSKYGYVLVGLGDGSVAPEYFSSSVTSGDAPLKVTFHGGTGYANDWTFGDGSRQSVGENQTVEHTYLEPGQYTVSLSEYNVGGTAAITKYHYITVTGLTRPVASFTSEKVSVPMSLTIAFTDTSIGKPTSWYWDFGDGDSSTEQNPTHTYSAAGNYTVSLTASNENSTNSTFRVIDVFKTTGPFAYVISGNNISVIDTATDKVVDTIEIGSGLVGVAVNPTGTKVYVANEGNNTVSVIDTSISKVIATVNGLNSPYAIAITPDGKKAYVTNNSGAVFENGTVYVIDTGTSTVMNTVNVGSVPHGVAVSLDGAKVYVTNYYDISVIDTATNKVTATLNVGQYPDGIAVSPDGTKIYVTNGGSDNVSVIDTETNNVTATLPVGDNPVRVAVTPDGTKLYVTNYKGNTISVINTTTNTVTATIPGDGPYGVSITPDGKKVYVTNLGSDLSGKTVSVIDTAANTVIATVKVGSYPREVAVAPYGK”, the protein production result was “failed”.

The values above are taken from a protein production outcome set (Wang et al. 2014).
